Data from the DeepSol protein solubility set.

test: soluble on expression in E. coli; label from the status in PepcDB or PDB records

Sequence | soluble on expression in E. coli
MGSDKIHHHHHHMGFIEVQQQFMDYIRDPSLPLPEGIEPRRMKIYRELFFNNIAGFVSSAFPVLKSVYEDDQWQALVQQFFVSHDCKTPIFVEIAGEFLAFLQHEYQMTEDDPVFMLQLAHYEWLELCVAVAPDTPAAQSINTIELNLHRLCLAACAKVAQYAFDVQHISVDYQPIEPTAQANFFCVFRGADDEVAFLQLTPLSAQVLAYIEQMTHSQQGVTVDAIISWLSEHYPQMPNDTLLSGCLPLLQQLAQKGIVISSIES | not soluble
SGMEELEQGLLMQPWAWLQLAENSLLAKVFITKQGYALLVSDLQQVWHEQVDTSVVSQRAKELNKRLTAPPAAFLCHLDNLLRPLLKDAAHPSEATFSCDCVADALILRVRSELSGLPFYWNFHCMLASPSLVSQHLIRPLMGMSLALQCQVRELATLLHMKDLEIQDYQESGATLIRDRLKTEPFEENSFLEQFMIEKLPEACSIGDGKPFVMNLQDLYMAVTTQEVQVGQKHQ | soluble
TVLPKDIPGDSLKVTVGTANGKPGDTVTVPVTFADVAKMKNVGTCNFYLGYDASLLEVVSVDAGPIVKNAAVNFSSSASNGTISFLFLDNTITDELITADGVFANIKFKLKSVTAKTTTPVTFKDGGAFGDGTMSKIASVTKTNGSVTIDP | soluble
MNAADDKTIVREYFNSTGFDRWKRIYGDGEVNKVQLDIRNGHQQTVDSVIGWLKNDGNLAELSICDAGCGVGSLSIPLATEGAKVYASDISEKMVEEGKQRALETLGNAENPTFAVQDLESLSGSYHTVICLDVLIHYPQEKADEMISHLCSLAQSRIILSFAPKTCALTLLKKIGSFFPGPSKTTRAYLHREADVIKILESNGFAIQRKEFTKTRFYFSRILEATRSLEHHHHHH | soluble
MSLAHAQMEMPPRSLGAVIEQAEAQEAPILLEVYAPWCPYCQRMQENVYADAEVRSYLDRRFTYARLNRDTTGGTHRFNGRTLSSKELGMALGARGVPTTVFMKPDGTPIAKQPGYIKRPVFLQMLRYFGSGAYEEQSFEAFRARASEGHHHHHH | not soluble
RPPKWTGMDVWAAAICFNTVEAAKKNLPKPESWADLTKPVYKGQIVMPHPASSGTGYLDVSAWLQTLGEKKGWDYMDKLHANMAQYVHSGSKPCKMAAAGEYPIGISFEYRGAQLKEKGAPIDLIYPKEGLGWDLEATAIIKGTKNLEAARKLADFSVSLPAMKLYEQNYAVLAMPGV | not soluble
MVVCSVQRLLLNFDFSENRSRSYHFTMDGKQIATTIPPVFLFNVLESVSGTDDRVLEHHHHHH | not soluble
MGSDKIHHHHHHMADQTESVSGVNVDQAELQKFAELAHKWWDKNSEFKPLHEINPLRLNYIDEHAGLAGKRVLDVGCGGGILSESMSERGAEVTGIDLGEKALKVAKLHQYESSAKVDYRLISVEELAQESPESFDIVTCMEMLEHVPDPAAIVRACARLTKPGGKVFFSTINRNPKAYLFAVLGAEYVLNLLPRGTHEYEKFIKPSELAGWARAAGLDVIASKGMGYNPLTKRYKLNNDVSVNYILQTVK | not soluble
MSSEAVAQATAATTSPEHGVPTSSATPTPPPSKGGGAGGGGGGEQQQVPFQMIPPGHFFANPFLNPYIPTAGAPAQEGEAQPQMVFSPAQYQEVMHHYFQQMMAASGAQFPIPFPMQFQPALQQPRPSSQASSSHRSEDDNGRQTAGSVVSSNVSPNHREVRPAEDSTETSGVVQNNDELLVPTSTSSDVTIGDVIEKSDSPENSQESAGGEEKSEEKRKLSGDRTDSLIRKQMSEMEKEITRRSQNKNIKTSGLSYTAPAPPSTEKSAPKESLNQLRSSFNLPDDSTTVGPVGPSTVPQQSQQFANNSMFMANAGNFVQNAFPIGVTMTPQATFGAAPGFQMMQPHQHNLFMQQPNPTFVNNGTNPFLQTQATLPNFVQNGTAPLVPTVSAQQFTPEQLAAAFAQQQIAQSAAPTPFDSPPPSMPSTSSGPSGALAPPPPPSHPIPRRVSGNGWPEENKENGTSTSTTNGAQSVPAAAGTDDPVWVLRDSYLKKMQREQRTSEEEEMSWQEAATAAQEAAENGGGDDQEEQETDRLLNGGTTGASTKGAERRGSVDKKKNSKETMVHEPAVLIEGVLFRARYLGSTQMLCESRGSKAARMAQAQEAVARVKAPEGDVQPSTEIDLFISTEKIMVLNTDLQRISDTDVRQDILMDHALRTISYIADIGDLVVLMARRMSTSHSDESCSDGDSSGGGVRKTPKVICHVFESDEASFIAQSIGQAFQVAYVEFLRANGIDDPSYLRQIDYQEVLNSQELLGDELEMFAKKETQKEVVVPKKAGEPLGIVVVESGWGSMLPTVVLAHMNPVGPAAHSNKLNIGDQIININGISLVGLPLSAAQTQIKNMKTATAVRMTVVSTPPVVEVRIRRPDTKYQLGFSVQNGVICSLLRGGIAERGGIRVGHRIIEINGTSVVAVAHDRIVNMLATAVGEIHMKTMPTSMFRLLTGQEQPQYI | not soluble
MGSDKIHHHHHHMYSDQTYEVIKNRTLENINLDIYKGEGSFLNNMVSGNNLELSKIYLELSKMHKMAFIQDTYNQFLDKRVNEFGVYRKLGTESNGEVEFIGEKGTVINNGTIISYRDLLFVVIKDVTIGSEEGDNSPVQALEVGKKYNLPTNCEFKLVDNISGVTKITNTRSFEGGTDIETDEELKERFYKIQRNQATSGNKAHYEEWALEVDGVYNVKVYPRWDGPGTVKVLIFGKNNQAVDTETIERCQQHIDEEKPIGPTITVVTPLPIEISISAVMKLEDGYTLDNVKESFLESINTYFRDIRGEIIYTKVMGILINTTGVHDLSNLLINGSTDNITINEDKIPSVTTVNFSEVENQ | not soluble
MANQLSTQQVKRDITTDPTLLTGADIKKYFDPQNLLSEKQVGQALALCKGRNLNPFANEVYIVAYKNNSGTDFSLIVSKEAFMKRAERCEGYDGFEAGITVMRNGEMVEIEGSLKLPDDVLIGGWAIVYRKDRSHRYKVTVDFNEYVKLDKYGNPRSTWKSMPGTMIRKTALVQTLREAFPDELGNMYTDIDGGDTFDAIKDVTPQETQEEVRARKMAQIEQYKQEQTQKQTQKADTSYPVDEVSEHTDDPVQGELLDGELEY | not soluble
MAYKVYLKDLADVDDGSRCESSSILTQNQPTTIASSGFVMSNPNVKSPSLPSSATNWNSEYSVTEPTMSPADQILKDSVARKKRSMVDLTELNQLYGKGYKPPAPSARTPPTIYENLAINAPSSPSATDASSVPLTFIEKHHEFKKLVPSGTDGRFELFLKVADCFD | not soluble
MKDLIELFWLRYTELQSAVGKNESDKIAVLERELELLLERIVGRKTESSEDIREQFRFAIDLLNHEAEDLGCVQRNSELLRTLVDRYVGMPLKAKVVGDEDEDTLAWHHRHLILDEDMLNDLDEPVVIVSPGYRVSFANALDAFQRNAPEGLIGCHIAELVGVHRFQNILREKLDNCFKGDTSKYTYAEDENGRTVVKSLEMSPCYSSAYKLVGAMVVIREIADRRRRAAG | not soluble
MHIVIVGAGAVGGFFGGLLHESGTKVTFVARGKSLDALQRRGMRLHDASGVRDIRVPVVEDLSHVPDADVVILATKTLGSVDVPKNLPKSAVLVTTQNSVEMPHIAVEALGVDRVIPGVVRSFLTKRGPAEAEFSGGIFTFTFGCMSEATRGIVDKLAHVLDRAGIEPVVHPAIMTDIWFKAMFVTCFGALGALVNQPLGVVRTTYRDDFKALINEVVTAGQAHGVDFPEDVVDRVLAFADAQPKGATSSMQRDLANGLPSELDAQAGAVVRMAQRVGVDARLHHLVGNVLSHKHSD | soluble
MGSDKIHHHHHHMIACENSGHSIPDDFPEVRKIVEAGVTTNPKKDYELSRYACYLIVQNGDPRKEVIALGQTYFAIQTYRQEVADHFNELDEDNRRLVVRGDIKQWNQMLAETAHNAGVITNEEFAIFQNAGYMGLYGGLDVEGILAAVYQSVFGGDVYLSLEEKVANLLFNEIGNSQVV | not soluble
MGSDKIHHHHHHMQKIFDAHLHLWDLEKIPISWIKDDEKLEQNYDFFRMKQEYKEFEFIGAMYVEVNSDDLEKEALFALEQKKLHNLLFCLADFKHKEELSSFREVMHTSKKGAKRLFEADFEEKIEILKTFNIPFEACIKNEELGFLEKFLSKNPNLKVVLNHLGSPKINRLNEYKKDLSFLKKFQNLYIKLSIPDGFSQETPKEFIFELFAFLKENFSENKFIFGSNYPVAKITPAKWAKLIIESKIFDDLDKIFYKNALLIYKGG | not soluble
